{"source": "patent US20230272055A1", "about": "(Incyte, published 2023)", "binders": {"B1": {"name": "anti-mutCALR antibody clone 5 (antibody, human IgG1, lambda, V domains shown)", "VH": "EVQLVQSGAEVKKPGASVKVSCKVSGYTLTELSMQWVRQAPGKGLEWMGGFDPDDGETMYAEKFQGRLTVTEDTSTDTVYMELRSLTSEDTALYFCATSPGYDFFDYWGQGTLVTVSS", "VL": "SYVLTQPPSVSVAPGQTASITCVGTNFGSKNVHWYQQRPGQAPVLVVYDDSDRPSGIPERFSGSNSGNTATLTISRVEAGDEADYYCQVWDSSSDHLIFGGGTKLTVLG", "notes": "human IgG1"}, "B2": {"name": "anti-mutCALR antibody clone 7 (antibody, human IgG1, lambda, V domains shown)", "VH": "B1 VH", "VL": "B1 VL with S75N, S94N, H96L", "notes": "human IgG1"}, "B3": {"name": "anti-mutCALR antibody clone 8 (antibody, human IgG1, lambda, V domains shown)", "VH": "B1 VH with E1Q, A16S", "VL": "B1 VL with V3E, S19R, V23G, T25N, F27I, N31S, R38K, N68R, Y86H, I98V", "notes": "human IgG1"}, "B4": {"name": "anti-mutCALR antibody clone 9 (antibody, human IgG1, lambda, V domains shown)", "VH": "B1 VH", "VL": "SYVLTQPPSVSVAPGQTARIPCGGNNIGSKSVHWYQQKPGQAPVLVVYDDRDRPSGIPERFSGSNSGNTATLTINRVEAGDEADYYCQVWDSSNDLLIFGGGTKLTVLG", "notes": "human IgG1"}, "B5": {"name": "anti-mutCALR antibody clone 10 (antibody, human IgG1, lambda, V domains shown)", "VH": "B1 VH", "VL": "B4 VL with V3E, K30E, S31G, R51S, N75S", "notes": "human IgG1"}, "B6": {"name": "anti-mutCALR antibody clone 12 (antibody, human IgG1, lambda, V domains shown)", "VH": "B1 VH with D55G", "VL": "B4 VL with I20V, P21S, H33N, Q36R, V47I, R51S", "notes": "human IgG1"}, "B7": {"name": "anti-mutCALR antibody clone 13 (antibody, human IgG1, lambda, V domains shown)", "VH": "B1 VH with E1Q", "VL": "not shown", "notes": "human IgG1"}, "B8": {"name": "anti-mutCALR antibody clone 15 (antibody, human IgG1, lambda)", "heavy": "not shown", "light": "SYELTQPPSVSVAPGKTARITCGGDNIGSKSVHWYQQKPGQAPVLVVYDDSDRPSGIPERFSGSNSGNTATLTINRVEAGDEADYYCQVWDSSNDLLIFGGGTKLTVLGQPKAAPSVTLFPPSSEELQANKATLVCLISDFYPGAVTVAWKADSSPVKAGVETTTPSKQSNNKYAASSYLSLTPEQWKSHRSYSCQVTHEGSTVEKTVAPTECS", "notes": "human IgG1"}, "B9": {"name": "anti-mutCALR antibody clone 16 (antibody, human IgG1, lambda, V domains shown)", "VH": "B1 VH", "VL": "B4 VL with Q16K, P21T, I27T, R51S", "notes": "human IgG1"}, "B10": {"name": "anti-mutCALR antibody clone 17 (antibody, human IgG1, lambda)", "heavy": "not shown", "light": "SYVLTQPPSVSVAPGQTARITCGGSDIGDEIVHWYQQKPGQAPVLVVYDDSDRPSGIPERFSGSNSGNTATLTISRAQAGDEADYYCQVWDSSSDHLIFGGGTKLTVLGQPKAAPSVTLFPPSSEELQANKATLVCLISDFYPGAVTVAWKADSSPVKAGVETTTPSKQSNNKYAASSYLSLTPEQWKSHRSYSCQVTHEGSTVEKTVAPTECS", "notes": "human IgG1"}, "B11": {"name": "anti-mutCALR antibody clone 18 (antibody, human IgG1, lambda, V domains shown)", "VH": "B1 VH", "VL": "B4 VL with Q16K, P21T, R51S, S55L", "notes": "human IgG1"}}, "note": "Substitutions are numbered along the chain they refer to.", "data": [{"biological_target": "T1, human Type 1 mutCALR on Ba/F3 cells expressing MPL and Type 1 mutCALR (human)", "T1 chain": "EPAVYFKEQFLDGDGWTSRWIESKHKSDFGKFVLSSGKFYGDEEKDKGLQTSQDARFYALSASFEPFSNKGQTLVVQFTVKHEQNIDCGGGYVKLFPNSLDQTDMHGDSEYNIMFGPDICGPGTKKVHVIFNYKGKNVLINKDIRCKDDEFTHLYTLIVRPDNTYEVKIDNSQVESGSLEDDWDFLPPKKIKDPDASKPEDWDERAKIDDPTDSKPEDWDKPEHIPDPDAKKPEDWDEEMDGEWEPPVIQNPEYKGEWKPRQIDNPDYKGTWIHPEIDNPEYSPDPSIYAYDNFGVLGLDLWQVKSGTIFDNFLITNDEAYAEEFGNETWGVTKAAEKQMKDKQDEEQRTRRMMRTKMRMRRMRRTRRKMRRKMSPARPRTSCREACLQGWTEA", "assay": "cell-based or functional assay", "units": {"IC50, inhibition of pSTAT5": "µg/mL"}, "values": [{"binder": "B1", "IC50, inhibition of pSTAT5": 0.03}, {"binder": "B2", "IC50, inhibition of pSTAT5": 0.049}, {"binder": "B3", "IC50, inhibition of pSTAT5": 0.043}, {"binder": "B4", "IC50, inhibition of pSTAT5": 0.056}, {"binder": "B5", "IC50, inhibition of pSTAT5": 0.055}, {"binder": "B6", "IC50, inhibition of pSTAT5": 0.061}, {"binder": "B7", "IC50, inhibition of pSTAT5": 0.091}, {"binder": "B8", "IC50, inhibition of pSTAT5": 0.041}, {"binder": "B9", "IC50, inhibition of pSTAT5": 0.028}, {"binder": "B10", "IC50, inhibition of pSTAT5": 0.031}, {"binder": "B11", "IC50, inhibition of pSTAT5": 0.036}]}, {"biological_target": "T2, human mutCALR on BaF3 cells stably expressing human MPL and human mutCALR (MPL-mutCALR cells) (human)", "T2 construct": "also called mutant calreticulin", "T2 chain": "T1 chain", "assay": "flow cytometry, BaF3 MPL-mutCALR cells", "protocol": "On the day of the assay, cells were washed and resuspended in assay buffer. Approximately 200,000 cells/well were added to 96-well plates and stained with the indicated concentration of antibodies for 30 minutes on ice. Cells were then washed and stained with goat anti-human secondary conjugated to R-phycoerythrin (R-PE) (Jackson Immuno Research Laboratories) for 30 minutes on ice. The cells were then washed and analyzed by flow cytometry.", "units": {"EC50": "µg/mL"}, "values": [{"binder": "B1", "EC50": 0.09, "MPL-mutCALR AUC": 57100}, {"binder": "B2", "EC50": 0.19, "MPL-mutCALR AUC": 66800}, {"binder": "B3", "EC50": 4.12, "MPL-mutCALR AUC": 67400}, {"binder": "B4", "MPL-mutCALR AUC": 75300}, {"binder": "B5", "MPL-mutCALR AUC": 72100}, {"binder": "B6", "EC50": 0.02, "MPL-mutCALR AUC": 61000}, {"binder": "B7", "EC50": 0.04, "MPL-mutCALR AUC": 57700}, {"binder": "B8", "MPL-mutCALR AUC": 87600}, {"binder": "B9", "EC50": 0.04, "MPL-mutCALR AUC": 63200}, {"binder": "B10", "MPL-mutCALR AUC": 72700}, {"binder": "B11", "MPL-mutCALR AUC": 91900}]}]}
